Results from article PMC5827659.
Blank lines part the entries; values can stand above or below the substance they belong to.

Columns and labels:
Assay in all cases: FRET (FIRE system)
[1] = molecular target: FIRE construct Y-TMG-/C-TMG-CC1 L251S R304W, Q13586-1; settings: HEK 293 cells; n=39; parent: est. 0.084; read off a plot
[2] = molecular target: FIRE construct Y-TMG-/C-TMG-CC1 R304K, Q13586-1; settings: HEK 293 cells; n=52; parent: est. 0.084; read off a plot
[3] = molecular target: FIRE construct Y-TMG-/C-TMG-CC1α1α2 L251S R304W, Q13586-1; settings: HEK 293 cells; n=9; parent: est. 0.077; read off a plot
[4] = molecular target: FIRE construct Y-TMG-/C-TMG-CC1α1α2 R304K, Q13586-1; settings: HEK 293 cells; n=18; parent: est. 0.077; read off a plot
FIRE construct Y-TMG-/C-TMG-CC1α1α2 R304K, Q13586-1, sequence (Q13586 whole entry R304K, looked up): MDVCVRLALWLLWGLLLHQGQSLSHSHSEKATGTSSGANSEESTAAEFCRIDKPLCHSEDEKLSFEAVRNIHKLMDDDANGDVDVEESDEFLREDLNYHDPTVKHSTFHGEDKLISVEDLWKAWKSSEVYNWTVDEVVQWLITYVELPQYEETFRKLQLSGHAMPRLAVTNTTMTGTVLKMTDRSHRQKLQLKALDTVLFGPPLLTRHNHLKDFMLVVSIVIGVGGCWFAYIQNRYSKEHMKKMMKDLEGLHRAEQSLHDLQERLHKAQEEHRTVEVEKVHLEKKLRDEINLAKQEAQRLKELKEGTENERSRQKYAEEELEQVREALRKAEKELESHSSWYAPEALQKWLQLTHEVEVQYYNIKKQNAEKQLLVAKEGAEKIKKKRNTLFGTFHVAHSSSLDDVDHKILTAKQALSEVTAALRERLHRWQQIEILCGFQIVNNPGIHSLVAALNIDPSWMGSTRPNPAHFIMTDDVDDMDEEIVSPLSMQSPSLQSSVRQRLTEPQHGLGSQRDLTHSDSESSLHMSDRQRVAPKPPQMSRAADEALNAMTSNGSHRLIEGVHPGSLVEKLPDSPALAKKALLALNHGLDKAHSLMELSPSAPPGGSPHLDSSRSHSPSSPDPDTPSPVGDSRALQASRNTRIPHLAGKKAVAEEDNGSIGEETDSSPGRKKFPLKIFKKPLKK

FIRE construct Y-TMG-/C-TMG-CC1α1α2 L251S R304W, Q13586-1, sequence (Q13586 whole entry L251S/R304W, looked up): as the sequence (Q13586 whole entry R304K, looked up) above, with L251S, K304W counted along it
FIRE construct Y-TMG-/C-TMG-CC1 L251S R304W, Q13586-1, sequence (Q13586 whole entry L251S/R304W, looked up): as the sequence (Q13586 whole entry R304K, looked up) above, with L251S, K304W counted along it
FIRE construct Y-TMG-/C-TMG-CC1 R304K, Q13586-1, sequence (Q13586 whole entry R304K, looked up): as the sequence (Q13586 whole entry R304K, looked up) above

Substance: FIRE construct Y-TMG-/C-TMG-CC1 (STIM1 CC1 233–343) wild type (from UniProt Q13586-1) L251S; R304W
- response [1]: 0.096 Eapp

Substance: FIRE construct Y-TMG-/C-TMG-CC1 (STIM1 CC1 233–343) wild type (from UniProt Q13586-1) R304K
- response [2]: 0.074 Eapp

- response [3]: 0.091 Eapp
Substance: FIRE construct Y-TMG-/C-TMG-CC1α1α2 (STIM1 233–309) wild type (from UniProt Q13586-1) L251S; R304W

- response [4]: 0.06 Eapp
Substance: FIRE construct Y-TMG-/C-TMG-CC1α1α2 (STIM1 233–309) wild type (from UniProt Q13586-1) R304K
